According to the supplement of paper PMC11136658:

System: peptide library, one residue held at a place counted from the Y acceptor
Assay: relative phosphorylation of the sub-library (ratio to the mean residue at this position); higher = residue favoured
Summary of the method: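 Peptide library mixtures, biotinylated and centred on Tyr, each fixed one residue at one position from −5 to +5. Purified recombinant kinases were incubated with them for 90 min in 384-well plates alongside 50 μM ATP and γ-32P-ATP, and the captured, rinsed peptides on streptavidin membranes were measured by phosphorimaging and ImageQuant. Normalization divided each position's intensities by the sum of its 18 randomized residues (16 for the Ser/Thr-free library) and multiplied by that number, so that values give phosphorylation relative to the mean randomized residue.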

Chain of FRK, construct: aa208-end, human (P42685 208-505, looked up): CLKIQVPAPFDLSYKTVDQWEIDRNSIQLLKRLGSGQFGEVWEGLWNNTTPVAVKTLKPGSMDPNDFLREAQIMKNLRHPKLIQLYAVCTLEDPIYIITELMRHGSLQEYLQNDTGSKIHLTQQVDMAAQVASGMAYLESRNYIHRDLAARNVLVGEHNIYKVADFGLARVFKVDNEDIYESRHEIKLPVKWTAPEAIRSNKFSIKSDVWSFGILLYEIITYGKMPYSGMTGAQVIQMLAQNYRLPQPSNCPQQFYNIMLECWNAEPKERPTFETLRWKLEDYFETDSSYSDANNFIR
Chain of LCK, construct: Full length, human (P06239 whole entry, looked up): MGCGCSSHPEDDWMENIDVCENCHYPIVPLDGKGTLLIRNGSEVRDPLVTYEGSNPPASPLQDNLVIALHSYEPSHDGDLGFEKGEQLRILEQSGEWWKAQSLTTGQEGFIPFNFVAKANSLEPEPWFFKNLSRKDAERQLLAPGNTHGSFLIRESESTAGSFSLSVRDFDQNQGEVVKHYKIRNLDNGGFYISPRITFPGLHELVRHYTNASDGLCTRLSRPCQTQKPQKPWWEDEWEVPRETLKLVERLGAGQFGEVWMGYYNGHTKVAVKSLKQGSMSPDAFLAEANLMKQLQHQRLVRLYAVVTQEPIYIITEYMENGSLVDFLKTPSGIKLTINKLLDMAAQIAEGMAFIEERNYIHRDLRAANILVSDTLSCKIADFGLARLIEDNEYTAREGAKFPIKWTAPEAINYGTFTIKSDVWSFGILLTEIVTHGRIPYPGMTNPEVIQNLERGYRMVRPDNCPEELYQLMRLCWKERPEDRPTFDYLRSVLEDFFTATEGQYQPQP
Chain of FGFR2, construct: aa285-end, human (P21802 285-821, looked up): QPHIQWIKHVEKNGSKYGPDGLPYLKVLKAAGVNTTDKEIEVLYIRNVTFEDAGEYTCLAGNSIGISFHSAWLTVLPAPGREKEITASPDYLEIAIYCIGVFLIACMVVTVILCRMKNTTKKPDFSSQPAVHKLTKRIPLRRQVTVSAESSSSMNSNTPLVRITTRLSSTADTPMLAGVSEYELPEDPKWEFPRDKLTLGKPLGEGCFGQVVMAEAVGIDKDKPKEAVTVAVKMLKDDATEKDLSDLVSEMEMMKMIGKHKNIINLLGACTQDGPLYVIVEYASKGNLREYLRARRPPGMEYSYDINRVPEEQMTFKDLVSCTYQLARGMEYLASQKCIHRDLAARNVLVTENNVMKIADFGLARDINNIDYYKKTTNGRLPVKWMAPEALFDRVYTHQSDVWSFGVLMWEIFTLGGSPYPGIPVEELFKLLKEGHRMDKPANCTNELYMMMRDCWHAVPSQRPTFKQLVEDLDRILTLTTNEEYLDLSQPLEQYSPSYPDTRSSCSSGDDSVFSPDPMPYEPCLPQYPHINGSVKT
Chain of FLT1, construct: aa748-end, human (P17948 748-1338, looked up): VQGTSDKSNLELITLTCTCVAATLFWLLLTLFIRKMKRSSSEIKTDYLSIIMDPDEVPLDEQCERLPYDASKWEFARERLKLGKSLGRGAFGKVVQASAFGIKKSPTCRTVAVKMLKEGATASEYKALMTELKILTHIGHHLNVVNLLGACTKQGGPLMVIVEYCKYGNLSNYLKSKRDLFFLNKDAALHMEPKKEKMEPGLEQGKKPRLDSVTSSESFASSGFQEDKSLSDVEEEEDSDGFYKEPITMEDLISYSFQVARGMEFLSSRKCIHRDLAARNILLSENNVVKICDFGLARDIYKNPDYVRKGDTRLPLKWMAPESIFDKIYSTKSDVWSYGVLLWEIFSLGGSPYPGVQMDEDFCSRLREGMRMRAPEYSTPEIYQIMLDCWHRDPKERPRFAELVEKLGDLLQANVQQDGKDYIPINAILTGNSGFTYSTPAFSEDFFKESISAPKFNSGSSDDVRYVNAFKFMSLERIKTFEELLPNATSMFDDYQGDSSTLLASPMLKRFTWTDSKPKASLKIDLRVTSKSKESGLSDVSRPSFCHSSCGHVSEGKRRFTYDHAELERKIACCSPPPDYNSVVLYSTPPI

FGFR2, construct: aa285-end, human (from UniProt P21802)
relative phosphorylation
Conditions	at +1	at +2	at +3	at +4	at +5	at -1	at -2	at -3	at -4	at -5
A fixed	0.967	0.586	0.554	0.848	1	0.772	0.949	0.935	1.13	0.929
D fixed	0.362	0.991	0.671	0.93	1.01	2.28	1.18	1.26	1	1.09
E fixed	0.774	1.54	0.515	1.11	0.972	1.41	1.42	1.53	1.14	0.89
F fixed	1.69	1.57	1.53	1.06	0.992	0.988	0.642	0.852	0.949	0.962
G fixed	0.345	0.353	0.495	0.981	1.32	0.506	1.09	1.09	1.2	1.27
H fixed	1.84	0.971	0.988	1.14	0.943	1.51	1.28	1.16	1.2	1.21
I fixed	1.33	0.926	1.89	0.883	0.836	1.23	0.679	0.697	0.773	0.806
K fixed	0.55	0.524	0.303	0.868	0.819	0.5	1.19	1.01	1.13	1.33
L fixed	0.929	1.24	1.96	0.885	0.927	0.94	0.78	0.685	0.81	0.824
M fixed	1.06	1.41	1.87	1.01	0.979	0.689	0.674	0.774	0.812	0.842
N fixed	0.472	1.01	0.488	0.865	0.987	1.3	1.14	1.28	0.939	1.05
P fixed	1.11	0.612	0.666	1.16	1.47	0.815	1.08	0.924	1.17	1.01
Q fixed	0.953	0.78	0.776	0.97	0.832	1.04	1.12	0.892	1.03	0.952
R fixed	0.706	0.758	0.551	1.39	0.884	0.495	1.24	1.12	1.26	1.34
S fixed	0.733	0.665	0.545	0.966	1.02	0.681	1.14	1.13	0.854	0.939
T fixed	0.901	0.827	0.737	0.918	0.983	0.805	0.939	1.08	0.721	0.883
V fixed	1.55	1.02	1.62	0.872	1.05	0.97	0.752	0.662	0.757	0.714
W fixed	1.72	2.22	1.84	1.14	0.977	1.08	0.697	0.912	1.12	0.969
pThr fixed	0.729	1.43	0.766	0.731	0.782	1.25	1	1.1	0.883	0.849
pTyr fixed	2.75	2.82	0.616	1.15	0.835	2.48	1.25	1.2	1.1	0.913

FLT1, construct: aa748-end, human (from UniProt P17948)
relative phosphorylation
Conditions	at +1	at +2	at +3	at +4	at +5	at -1	at -2	at -3	at -4	at -5
A fixed	0.624	0.689	0.604	0.797	0.722	0.496	0.885	0.899	0.91	0.956
D fixed	0.478	1.49	0.636	1.1	1.01	3.57	1.75	1.66	1.4	1.24
E fixed	0.487	0.899	0.582	0.817	0.933	2.46	1.57	1.66	1.38	1.1
F fixed	2.3	1.38	1.99	0.981	1.13	0.92	0.797	1.01	0.956	1.14
G fixed	0.478	0.439	0.633	0.845	0.911	0.446	1.11	1.03	1.1	1.1
H fixed	1.38	1.17	0.7	1.3	1.17	1.18	1.07	1.22	1.12	1.24
I fixed	1.34	0.698	1.46	0.709	0.639	0.948	0.597	0.599	0.653	0.745
K fixed	0.683	1.21	0.625	1.39	1.27	0.432	1.01	0.853	1.01	1.14
L fixed	0.873	0.86	1.63	0.787	0.844	0.639	0.633	0.729	0.693	0.727
M fixed	1	0.867	1.6	0.8	0.786	0.559	0.696	0.73	0.797	0.801
N fixed	0.533	1.19	0.755	1.06	1.11	1.16	1.16	1.17	0.929	0.953
P fixed	0.415	0.574	1.02	1.4	1.28	0.525	1.08	0.781	0.897	1.03
Q fixed	0.957	0.926	0.684	0.88	1.09	0.81	1.14	1.05	1.02	0.936
R fixed	0.875	1.53	0.729	1.46	1.25	0.458	1.13	1.01	1.1	1.11
S fixed	0.67	0.923	0.698	0.968	0.83	0.462	1.14	1.08	0.867	0.982
T fixed	0.987	1.11	0.666	0.83	0.839	0.705	1.04	0.906	0.887	0.891
V fixed	1.94	0.766	1.09	0.681	0.723	0.747	0.655	0.594	0.701	0.763
W fixed	1.63	1.32	1.27	0.985	1.12	0.649	0.724	1.01	1.34	1.02
pThr fixed	0.947	2.03	0.788	1.08	0.963	2.55	1.42	2.05	1.86	1.78
pTyr fixed	2.58	2.77	0.88	0.609	0.679	2.54	2.3	3.12	2.64	1.66

FRK, construct: aa208-end, human (from UniProt P42685)
relative phosphorylation
Conditions	at +1	at +2	at +3	at +4	at +5	at -1	at -2	at -3	at -4	at -5
A fixed	1.2	0.883	0.702	0.821	1.01	0.594	1.14	0.808	1.11	1.05
D fixed	0.563	0.473	0.24	0.573	0.93	0.836	1.19	1.92	1.14	1.12
E fixed	2.3	0.65	0.193	0.549	0.861	1.92	1.73	2.11	1.84	0.931
F fixed	1.03	1.6	1.95	1.38	1.21	0.878	0.642	0.892	1.03	1.07
G fixed	0.519	0.445	0.589	1.01	0.861	0.34	1.13	1.09	1.27	1.21
H fixed	0.91	0.758	0.741	1.32	1.15	0.777	1.02	0.902	0.913	0.993
I fixed	1.54	1.29	2.29	0.88	0.807	3.11	1.1	0.761	0.923	1.07
K fixed	0.343	0.897	0.475	1.23	1.06	0.27	0.568	0.631	0.719	0.858
L fixed	1.25	1.36	1.56	0.937	1.01	2.46	0.895	0.852	0.993	1.09
M fixed	1.76	0.966	1.3	1.22	0.914	1.13	0.67	0.895	0.929	1.12
N fixed	0.382	1.01	0.568	0.737	0.702	0.573	1.01	1.06	0.888	0.973
P fixed	0.116	0.601	0.87	0.971	1.15	0.452	1.3	1.04	1.1	1.11
Q fixed	1.23	0.748	0.469	0.965	0.974	0.664	1.01	0.838	1.06	0.966
R fixed	0.492	1.11	1.52	1.35	1.2	0.311	0.656	0.674	0.769	0.863
S fixed	0.919	1.09	0.642	0.863	1.01	0.433	1.03	0.938	0.792	0.836
T fixed	0.825	1.17	0.767	0.771	0.853	0.9	0.9	0.882	0.634	0.8
V fixed	1.18	1.21	1.71	0.865	0.934	1.9	1.3	0.778	0.793	0.825
W fixed	1.44	1.73	1.43	1.55	1.36	0.453	0.716	0.929	1.09	1.11
pThr fixed	1.09	1.58	0.217	0.462	0.638	2.06	1.3	1.28	0.91	0.853
pTyr fixed	4.6	2.61	0.782	0.659	0.692	1.06	1.28	1.7	1.57	0.867

LCK, construct: Full length, human (from UniProt P06239)
relative phosphorylation
Conditions	at +1	at +2	at +3	at +4	at +5	at -1	at -2	at -3	at -4	at -5
A fixed	1.69	1.08	0.69	0.928	1.14	0.73	1.02	0.875	1.08	1.06
D fixed	1.03	0.616	0.245	0.484	0.691	0.877	1.4	1.77	1.4	1.28
E fixed	1.58	1.07	0.211	0.557	0.532	1.22	1.68	2.02	1.63	1.13
F fixed	0.615	0.776	1.65	0.931	1.28	1.06	0.572	0.895	0.822	0.96
G fixed	2.95	0.934	0.904	1.18	1.14	0.416	1.35	1.1	1.25	1.17
H fixed	0.786	0.711	1.06	1.02	0.844	0.757	0.99	1.01	0.975	0.962
I fixed	0.738	0.932	1.92	0.85	0.639	2.81	0.663	0.549	0.792	0.836
K fixed	0.271	0.936	0.752	1.66	1.07	0.308	0.641	0.562	0.665	0.852
L fixed	0.686	0.754	1.67	0.887	0.942	1.93	0.796	0.731	0.921	0.866
M fixed	1.37	0.795	0.932	1.03	0.91	0.894	0.726	0.73	0.792	0.878
N fixed	0.54	0.934	0.429	0.801	0.92	0.431	1.25	1.42	1.11	1.24
P fixed	0.225	1.33	0.84	1.07	1.31	0.833	1.32	1.01	1.2	1.23
Q fixed	0.979	0.954	0.45	1	0.937	0.538	1.2	1.01	1.19	1.15
R fixed	0.438	1.2	1.55	1.69	1.34	0.238	0.696	0.637	0.82	0.98
S fixed	1.11	1.31	0.651	0.911	1.28	0.405	1.22	0.982	0.885	0.897
T fixed	0.821	1.36	0.697	0.849	0.968	1.32	0.982	0.892	0.735	0.841
V fixed	0.868	1.2	1.33	0.846	0.89	2.65	0.749	0.693	0.749	0.703
W fixed	1.3	1.11	2.02	1.3	1.16	0.584	0.748	1.11	0.989	0.971
pThr fixed	0.786	1.27	0.195	0.27	0.448	3.03	1.47	1.18	1.13	1.17
pTyr fixed	1.22	1.24	0.303	0.289	0.434	1.21	1.16	1.59	1.64	0.861
